Experimental data as given in PMC7081427.

How the values were obtained:
Assay in all cases: EMSA
nucleolin RRM [1] = biological target: T1, nucleolin RRM (UniProt P19338 267-645)
RRM-RGG F/A1 = RRM-RGG F/A1 (UniProt P19338 267-709, F663A)
nucleolin RRM-RGG = nucleolin RRM-RGG (UniProt P19338 267-709)
RRM-RGG F/A3 = RRM-RGG F/A3 (UniProt P19338 267-709, F663A;F676A;F684A)
nucleolin RRM [2] = biological target: T1, nucleolin RRM; remark: listed apart in the source
RRM-RGG F/A2 = RRM-RGG F/A2 (UniProt P19338 267-709, F663A;F676A)
RRM-RGG F/A2, sequence (P19338 267-709 F663A/F676A): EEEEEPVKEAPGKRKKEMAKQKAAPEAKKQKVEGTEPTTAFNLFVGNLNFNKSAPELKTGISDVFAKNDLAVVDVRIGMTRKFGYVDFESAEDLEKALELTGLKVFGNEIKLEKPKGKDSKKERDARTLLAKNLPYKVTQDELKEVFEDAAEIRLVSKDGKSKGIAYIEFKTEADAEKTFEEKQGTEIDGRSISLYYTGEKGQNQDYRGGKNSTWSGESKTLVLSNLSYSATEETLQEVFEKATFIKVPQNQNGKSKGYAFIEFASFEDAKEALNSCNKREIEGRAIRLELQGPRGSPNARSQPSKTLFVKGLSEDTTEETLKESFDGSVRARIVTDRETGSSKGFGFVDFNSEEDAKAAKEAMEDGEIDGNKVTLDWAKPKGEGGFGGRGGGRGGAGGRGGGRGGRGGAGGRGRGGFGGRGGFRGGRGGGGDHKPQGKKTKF

T1 sequence (P19338 267-645): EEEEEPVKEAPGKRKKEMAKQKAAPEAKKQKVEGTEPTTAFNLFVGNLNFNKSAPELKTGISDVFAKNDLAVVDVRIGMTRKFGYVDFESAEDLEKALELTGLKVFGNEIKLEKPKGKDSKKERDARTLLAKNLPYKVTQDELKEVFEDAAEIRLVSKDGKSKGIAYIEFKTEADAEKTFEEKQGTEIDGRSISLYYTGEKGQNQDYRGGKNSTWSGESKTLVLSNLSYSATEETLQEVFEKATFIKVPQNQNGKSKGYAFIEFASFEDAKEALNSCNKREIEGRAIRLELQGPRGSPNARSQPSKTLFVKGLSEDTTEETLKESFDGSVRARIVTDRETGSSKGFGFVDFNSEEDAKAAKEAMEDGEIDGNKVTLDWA
RRM-RGG F/A3, sequence (P19338 267-709 F663A/F676A/F684A): as the sequence (P19338 267-709 F663A/F676A) above, with F418A counted along it
RRM-RGG F/A1, sequence (P19338 267-709 F663A): as the sequence (P19338 267-709 F663A/F676A) above, with A410F counted along it
nucleolin RRM-RGG, sequence (P19338 267-709): as the sequence (P19338 267-709 F663A/F676A) above, with A397F, A410F counted along it

Binder	binding result (nucleolin RRM [1])	Kd (RRM-RGG F/A1) [nM]	Kd (nucleolin RRM-RGG) [nM]	Kd (RRM-RGG F/A3) [nM]	Kd (nucleolin RRM [2]) [nM]	Kd (RRM-RGG F/A2) [nM]
GGGGGGGGGG (ssDNA) [dG10]	binds					
GGGCGCGGGAGGAATTGGGCGGG (structured_DNA) [BCL-2]		75.5 ± 9.5	79.6 ± 4	172 ± 9.1	73.6 ± 7.1	71.8 ± 6.9
